The results in this text go back to the supplement of paper PMC10567573.

B1: KCNA1 (parent)
chain: LKASMRELGLLIFFLFIGVILFSS
B2: FUNDC2 (parent)
chain: YIKVDWQRVEKDMKKAKEQLKIRK
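Further: lentivirally expressed fusions sorted by FACS into six bins by GFP to DsRed ratio, PSI derived from sequencing read proportions per bin multiplied by bin number.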

In the first data set the parent is B1. The data set is described as follows: protein stability index of a GFP-peptide fusion (GPS, HEK-293T) (PSI 1-6); higher = more stable. The conditions noted are these: c terminus: a fixed tail appended.
LKASMRELGLLIFFLFIGVILFVS: the protein stability index was found to be 2.
Consider LKASMRELGLLIFFLFIGVILFYS, for which the protein stability index was found to be 2.2.
On to LKASMRELGLLIFFLFIGVILFQS, for which the protein stability index worked out at 2.13.
Same read-out and setting: the same measure for LKASMRELGLLIFFLFIGVILFRS: 3.62.
With LKASMRELGLLIFFLFIGVILFTS, the protein stability index amounted to 1.44.
Turning to LKASMRELGLLIFFLFIGVILFNS, the protein stability index stood at 2.41.
Still for that read-out and setting: the figure for LKASMRELGLLIFFLFIGVILFPS is 2.42; for LKASMRELGLLIFFLFIGVILFLS it is 2.19; for LKASMRELGLLIFFLFIGVILFMS it is 2.35.
Still for that read-out and setting: the figure for LKASMRELGLLIFFLFIGVILFWS is 2.38; for LKASMRELGLLIFFLFIGVILFSY it is 2.06; for LKASMRELGLLIFFLFIGVILFSL it is 1.47.
Still for that read-out and setting: the same measure for LKASMRELGLLIFFLFIGVILFSF: 2.02; for LKASMRELGLLIFFLFIGVILFSA: 2.04; for LKASMRELGLLIFFLFIGVILFSV: 1.85.
Regarding LKASMRELGLLIFFLFIGVILFSE, the protein stability index worked out at 2.02.
On to LKASMRELGLLIFFLFIGVILFSI, for which the protein stability index worked out at 1.23.
Same read-out and setting: the figure for LKASMRELGLLIFFLFIGVILFSM is 2.42; for LKASMRELGLLIFFLFIGVILFSK it is 3.45; for LKASMRELGLLIFFLFIGVILFSP it is 3.1.
Still for that read-out and setting: the figure for LKASMRELGLLIFFLFIGVILFSQ is 2.11; for LKASMRELGLLIFFLFIGVILFSN it is 2.83.
Regarding LKASMRELGLLIFFLFIGVILFSC, the protein stability index turned out to be 1.19.
For the variant LKASMRELGLLIFFLFIGVILFSH, the protein stability index is 2.
The same measure, in the same setting: the figure for LKASMRELGLLIFFLFIGVILFSW is 1.84; for LKASMRELGLLIFFLFIGVILFSD it is 2.
LKASMRELGLLIFFLFIGVILFST: the protein stability index amounted to 2.

In a further data set the parent is B2. Described as above. The note with it: c terminus: a fixed tail appended.
As to SIKVDWQRVEKDMKKAKEQLKIRK, the protein stability index was found to be 3.11.
Same read-out and setting: the figure for FIKVDWQRVEKDMKKAKEQLKIRK is 1.85; for PIKVDWQRVEKDMKKAKEQLKIRK it is 3.81; for YPKVDWQRVEKDMKKAKEQLKIRK it is 2.54.
In the case of YSKVDWQRVEKDMKKAKEQLKIRK, the protein stability index amounted to 3.37.
Same read-out and setting: the figure for YVKVDWQRVEKDMKKAKEQLKIRK is 1.83; for YWKVDWQRVEKDMKKAKEQLKIRK it is 2.96; for YYKVDWQRVEKDMKKAKEQLKIRK it is 3.
On the same count and under the same terms, the same measure for YTKVDWQRVEKDMKKAKEQLKIRK: 2.37; for YKKVDWQRVEKDMKKAKEQLKIRK: 3.35.
For YLKVDWQRVEKDMKKAKEQLKIRK, the protein stability index was 2.26.
Still for that read-out and setting: the figure for YMKVDWQRVEKDMKKAKEQLKIRK is 4.03; for YEKVDWQRVEKDMKKAKEQLKIRK it is 4.42; for YIKVDWQRVEKDMKKAKEQLKDRK it is 1.92.
Still for that read-out and setting: the same measure for YIKVDWQRVEKDMKKAKEQLKNRK: 1.98.
The same measure, in the same setting: the same measure for YIKVDWQRVEKDMKKAKEQLKCRK: 1.47; for YIKVDWQRVEKDMKKAKEQLKYRK: 1.88; for YIKVDWQRVEKDMKKAKEQLKRRK: 1.29.
As to YIKVDWQRVEKDMKKAKEQLKSRK, the protein stability index amounted to 2.01.
Same read-out and setting: the same measure for YIKVDWQRVEKDMKKAKEQLKIRL: 2.16; for YIKVDWQRVEKDMKKAKEQLKIRC: 2.47; for YIKVDWQRVEKDMKKAKEQLKIRM: 1.31.
The same measure, in the same setting: the figure for YIKVDWQRVEKDMKKAKEQLKIRS is 1.67; for YIKVDWQRVEKDMKKAKEQLKIRN it is 2.07.
The same measure, in the same setting: the figure for YIKVDWQRVEKDMKKAKEQLKIRV is 2.61; for YIKVDWQRVEKDMKKAKEQLKIRH it is 2.12.
Turning to YIKVDWQRVEKDMKKAYEQLKIRK, the protein stability index is 2.37.
Same read-out and setting: the same measure for YIKVDWQRVEKDMKKAREQLKIRK: 2.27; for YIKVDWQRVEKDMKKAWEQLKIRK: 1.66.
Same read-out and setting: the same measure for YIKVDWQRVEKDMKKAIEQLKIRK: 1.71.
On the same count and under the same terms, the figure for YIKVDWQRVEKDMKKAFEQLKIRK is 2.62; for YIKVDWQRVEKDMKKAKMQLKIRK it is 1.59; for YIKVDWQRVEKDMKKAKHQLKIRK it is 2.41.
On to YIKVDWQRVEKDMKKAKQQLKIRK, for which the protein stability index was 1.99.
On the same count and under the same terms, the figure for YIKVDWQRVEKDMKKAKSQLKIRK is 2.46; for YIKVDWQRVEKDMKKAKDQLKIRK it is 1.44.
On the same count and under the same terms, the same measure for YIKVDWQRVEKDMKKAKWQLKIRK: 1.16.
On the same count and under the same terms, the same measure for YIKVDWQRNEKDMKKAKEQLKIRK: 2.37; for YIKVDWQRGEKDMKKAKEQLKIRK: 1.95; for YIKVDWQRWEKDMKKAKEQLKIRK: 1.99.
YIKVDWQRAEKDMKKAKEQLKIRK: the protein stability index was determined as 1.5.
On the same count and under the same terms, the figure for YIKVDWQRLEKDMKKAKEQLKIRK is 2.04; for YIKVDWQRYEKDMKKAKEQLKIRK it is 1.67; for YIKVDWQRMEKDMKKAKEQLKIRK it is 1.26.
Still for that read-out and setting: the same measure for YIKVDWQRQEKDMKKAKEQLKIRK: 2.16; for YIKVDWQRTEKDMKKAKEQLKIRK: 1.66; for YIKVDWQRSEKDMKKAKEQLKIRK: 1.91.
The same measure, in the same setting: the same measure for YINVDWQRVEKDMKKAKEQLKIRK: 2.22.
As for YIEVDWQRVEKDMKKAKEQLKIRK, the protein stability index was found to be 2.4.
The same measure, in the same setting: the same measure for YICVDWQRVEKDMKKAKEQLKIRK: 2.86; for YIMVDWQRVEKDMKKAKEQLKIRK: 1.91; for YIPVDWQRVEKDMKKAKEQLKIRK: 2.07.
On the same count and under the same terms, the same measure for YIIVDWQRVEKDMKKAKEQLKIRK: 1.73; for YIKVDWQRVEKDMKKAKECLKIRK: 1.43; for YIKVDWQRVEKDMKKAKEHLKIRK: 1.33.
For the variant YIKVDWQRVEKDMKKAKEVLKIRK, the protein stability index is 1.19.
The same measure, in the same setting: the same measure for YIKVDWQRVEKDMKKAKEDLKIRK: 1.98; for YIKVDWQRVEKDMKKAKENLKIRK: 1.81.
The same measure, in the same setting: the same measure for YIKVDWQRVEKDMKKAKEILKIRK: 1.49.
On the same count and under the same terms, the same measure for YIKVDWQRVEKDMKKAKELLKIRK: 2.43.
Regarding YIKVDWQRVEKDMNKAKEQLKIRK, the protein stability index was found to be 1.61.
Same read-out and setting: the same measure for YIKVDWQRVEKDMVKAKEQLKIRK: 1.92; for YIKVDWQRVEKDMMKAKEQLKIRK: 1.9; for YIKVDWQRVEKDMHKAKEQLKIRK: 1.14.
The same measure, in the same setting: the figure for YIKVDWQRVEKDMQKAKEQLKIRK is 1.72; for YIKVDWQRVEKDMTKAKEQLKIRK it is 1.92; for YIKVDWQRVEKDMSKAKEQLKIRK it is 2.03.
